Assay results from the supplement of paper PMC12636428.

What follows are sequences tested on Saccharomyces cerevisiae (assay: transcriptional activation domain activity (GFP:mCherry ratio, weighted mean of sorted bins, harmonized to initial dataset scale) (arbitrary fluorescence ratio units); higher = stronger transcriptional activation). Details: beta-estradiol 1 µM; induction time 4 h.
Outline: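 After a 1:5 dilution into SC with 1 uM beta-estradiol and 4 hours at 30 °C, yeast diploids carrying a GFP reporter and URA3-integrated barcoded tiles were sorted into 8 bins by GFP:mCherry ratio. The tiles were fused to an estradiol-inducible synthetic transcription factor. Barcodes were sequenced, tiles below 50 reads were discarded, and activation activity was taken as the read-weighted mean of bin median fluorescence, averaged across barcodes and linearly mapped onto the initial dataset scale.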

| Sequence | transcriptional activation domain activity |
| --- | --- |
| SKSEVSGTGRKAYAQKGRGKARVHSLRAPQFRGGGRAFPVKPRDFSSEIQIKV | 61100 |
| SKSRSSSSSSSSSSSSSSSSSSSESEKSHSKHKSKSKSKSKARKSKSKSKHRG | 18100 |
| SKTAGPSSNSPSQTGKDDKAAASSSTSAGGAPAATGRVIAGLAAGVAMGLAAA | 37700 |
| SKVYLLKHFEGYIMGKLYGDYEYTFLDLQRTKGMHFVQKYLRMKHVIVFKLSH | 58700 |
| SKWEVANKKTRDEASKGGGGKGGGGGKGGKAGEGGKEKRSEKKAAAKEGGKKK | 39600 |
| SKWTTVDADDDLMRTFIRAYFLYEYDWFTFFHKDYFLDDMLAGSSTFCSPLLV | 42000 |
| SKWWLLGDSFEADILTFITLYQFVNAGFVFNYGYIFRKSWYRNYLLICIWALF | 67200 |
| SLADEKERGLLTGDDNRDEYLGRNLRGMIHEFRWQTLVLLKCCLLQPKMLFFS | 58100 |
| SLAFPLFIIARYFPLGLIAIDFIQLAAPTHSQVTCTVLFRLYILLLMIITFST | 40900 |
| SLAFQVDFTRKYGMVGFFLFWMMSQEAHHDPLLLLLHSPLYFPIFLLFWVILN | 68800 |
| SLAVRTGAELGQDASMDDAEARNMDGNLDVDLAELSLGQRLTAVNGTEGAGRS | 19700 |
| SLDALHIIFVAHSLYWYLVLNYITPLALLSIVWSFHLQIAINIMLIASVQTAY | 37300 |
| SLDHTSLWIRRSVLSFSIEQIKKVFFQLFSTWYIFIFQLPYFPEWLWKNKTYP | 49100 |
| SLDLEILEELEKLISAQEFSRNFTEDVDESLQSEIDLMNYDNEALNQLMAIDL | 137000 |
| SLEAWVPSVKLMMHDRSGLSRDGRTAVYHLIALTLRYSEIYVEQILVLWKGLV | 44200 |
| SLFFSVWALSQTWCVGHRRCSPMHLGTYYDAFIFLGISGMWKWSLLLIVIYRF | 34000 |
| SLFLLVVSINDVQTINFFYFVTDYGSWLEIGTSISHFCIAELFIIFTICLFWL | 37800 |
| SLFLSFFIFPLFLFFYFFSFFFDLFIVCMVHLFLGKDLYLFGYQKVLFCFCLC | 65700 |
| SLGCLVKQAEYQVDGRSIGMDGYLFFFFFACCCFLYTSGLSFLYLFWFFFLVF | 22900 |
| SLGCTLVYVAHISYLSLLPRFDYSYNMAFNLTLGLTHNFLWLLYSLPSFCAIP | 52300 |
| SLGMGLDYWARLSGLYLQKLGWGYRVWCFSFWMGLSLGFLLLFSSLGAYILFL | 55400 |

| Sequence | transcriptional activation domain activity |
| --- | --- |
| SLHFNLGELRRTLLPFMWLTLKLSFFLWIFGRHAASNKRVVLCILALLCVLWE | 64800 |
| SLHKIHLVYRDVLRDKLRASVGCSRIRKILRSPPLYPTWMRCLFAFICASIIC | 57600 |
| SLHLAGCMLITCIGFIVLACLDVSQHIGAGYFCCFLLCCGGYISSPLLSTWYN | 94700 |
| SLHLCFSMCLTMIGYIILIKIDTLEHKAVAYFACFLLTSGAFAPSCLFHSWHN | 33300 |
| SLIGIGITILQQLSEISFLPMTTFNISRCLWRLSLLTILACVNFGPSIYIFWF | 51500 |
| SLILVTYNTSHIACFYLLPQPHYFHLTSFLFLSIFFFLFSSLEHGSSFLAFFH | 52500 |
| SLISFRLLGEVATGIKYLVCYDMPNMSRIEVELAKRLYCLILCGLCTWSIYGR | 79500 |
| SLLAKCDNGDVLKLQEAIEEDDAAREERERAERAAAALKREKEGSASRVLVTG | 38800 |
| SLLEELTMRLLETDESHIKKIKDLSRFVNMIILRLFATGRRMSIFRSLFALLL | 62600 |
| SLLLNDFSELRNGYFTSLFSLSLFLFLFAMPWTLTDITPFLMVLLFYHILFFI | 69600 |
| SLLLPQQPVFVSENVGSEFSSLNEFLSMLENPLLTQTSLSSSSASNVHLENGS | 98100 |
| SLLMLLFIRGWFSYLIAVVSISGVLVLHMLYFLLQWRLKYILWLLLHCSIAIP | 79500 |
| SLLPSPPQAVIFLVLFFSFLLLALFGYLFYFPLIPFLKTSIPIFSTYYSFFFM | 24300 |
| SLLQHLAEYFICFDSVVSFLLTLVVNVFRLTSFGIIRLVGWRPVVFFFFPSIY | 50900 |
| SLLQSLPFPLQFLTLCFNSHLLIVIVVIIGCILESIYVGTFLWMLLRVCRWQG | 66500 |
| SLLVLCECLLMTIGVVFTTPHVDFIYRCVNTVTPTTMVYFVVCVLFNHLVILL | 73100 |
| SLLVWEFCLRHPEVRDVCDLGQMIFWNNKGAFYFTAFMFILNNTFIQGLHCLV | 72600 |
| SLNIDSMLDDYVSSDLLLNDDDDDTNLSRRRFSDVITNQFPSMTNSRNSISHS | 52600 |
| SLNVLACGAIILFPRLAFLVVNNNAIVLGLRVMFVKFVFVCLLALWCFAGFLL | 69300 |
| SLPFHCTLLLVVINLIAVVAILWTRFASKLLGSSVCAFLYIFVGTFTILIHVR | 20500 |
| SLPLPDTLPFPLPDSLHLPLTDDFSLTLQDALPFLYMDSLPFPLPMPFLFYFW | 69600 |

| Sequence | transcriptional activation domain activity |
| --- | --- |
| SLPPPRFSPMFSFSLMSYLRCFDYYVCFFFSLFCFFSPALLVEGVVTFFSFIH | 60100 |
| SLPSTTPAGAPPTDAAKPAGGLFGNTSAQASTGSSGLFGNAAKPATTSASSAQ | 16100 |
| SLPVSKGVWGSVGRVILLIFTAKPLEFCIQLTLVDFVEVDAHTMRVIHCRKVR | 28100 |
| SLPYFLYICDWYLCNSFLYLSSILSFHCVYLCCFASIITLWFPAFFLTVILSI | 51500 |
| SLQEIDKMRVDGKFVDSEGIGRRPICVSSSILKQVLLYLLRRCYGLIYRLLSS | 33800 |
| SLQLLYFMPVRYYTYHKRGYHYFLADLCYFVNVLLLLSIWIFPNSRRLMISTY | 65100 |
| SLRLLLTVLAGYPIAIVYRLIFLNKTSTIIGASARNWFCLVAGLSLSYYFNSF | 70800 |
| SLRVDTSVTCCKLRSFSHIVTSYIEVLFLLKILREFLYADLFVHIWLALSLLA | 62700 |
| SLSFTPPHSNPPSPSFLLPFPLPFLLPFPPLSFPFPPPFAFPFTPFPPFPFSP | 38700 |
| SLSRIVGRGGAQINQIKEDTEVESLDVNQEGEGDSATVTLKGTKTAVAAAKKA | 21900 |
| SLSRKKRGRGRPKGSKNKKSGDGAASSAAPSGDATGKRKRGRPPKEKPAEATA | 44300 |
| SLSSSRVLGEHGNGPDGEGGFVHVSYRISLDEENELQMRVRPSERGGGEGVDG | 39200 |
| SLSTFVYTFLRFHFYFFAFFLVALTFSFFLLFCSLFVCPVGIIFLYFFIFFVL | 52100 |
| SLSVVLLHMRHRRLLFSVVMILFIFWMLYVGHCMLYVLLLLRVLLLSLHLWIV | 31700 |
| SLTHGMPQDLRRAVRNGVRLASAEDQERYFTFILHEAVRLYGVLMMRIVYRLF | 55300 |
| SLTQLIWYLLRRRPFTVLQLNHLFGLPDPLRILHLASSRRLWNAIPVITIATL | 54600 |
| SLTREFNDIGLLTELHYVQGIETLIKIGTRFSMVAALVVYRNFRWHLSSAIPP | 48200 |
| SLVAATATAVEAEPPQPVKRPRGRPKKDATVASSPKPARATKAKAKAKAAVPP | 24700 |
| SLVDFHKFFKWLLLKVVKGLNKLRNLHNERPKELQTNEMEHLLNLMKIVRFFA | 46500 |
| SLVLPCLSSYHYRFIDDYHVLHAQVKLMQGVLWWSMVQNITVYLLFLLLFLFA | 25200 |
| SLVLQTVFLYMVERVDICIDYLKVHRRFREAEVYLLRFQQCMTRAMTLIKMYF | 75700 |

| Sequence | transcriptional activation domain activity |
| --- | --- |
| SLWCLVIFPCSLVFLGLVGPVLSWFFLSFLFSWLIGRLVLYLILFLLFVTDWA | 22000 |
| SLYLCLGMLYLRKNPLLKEPLTLEHIKARLLGHWGSDAGQIFTYIHFNRLIKK | 69300 |
| SLYRVWDCKSTMLAFSKYIPQIHSPSALEYALVSMGSDFVLFLLRRIFEILKK | 55500 |
| SMDQIREYNTRLQLVNAQSFDYTDNPYSFNVGINQDSAVFDLMTSPFTQEEVL | 112000 |
| SMGENLFDVFRARVILTWYYWTHARWCDVYMSSVISLRLAVTCGLNGCPPFQT | 75000 |
| SMHCGVVPCCFFVCLCLISFVYLEISIIFLGHSFFLSLSFFYIMNLFYTWWVS | 25200 |
| SMLEQQESTSAARAEGQRGGAVQEGDIELVDAACVQLASRISPKSLLQRPMVD | 31900 |
| SMLKIARQSPRGIRDSKGGEGFLLLESGDQSTNIVTVVRIKLLMEKLYTLPEL | 32200 |
| SMLNGFAGLDDIPMENILRFLNRFVVNNLLLDILCQCSRHARRTLAGNIFRAA | 47000 |
| SMLSYHLWMVMHAETSVESQDFHIYRKVAKRRGETFTNSYDLGKIRNLELFFN | 61200 |
| SMNYISITAPIYDRGPDSTCLLGSTVCSYFDYDTWTLSLTLWVLIQLTWSMFL | 60800 |
| SMRAPLFTELGLLPLRFRRLILALRYLSYLITLPHEHYASAALQDAFDLYSQG | 24100 |
| SMRDSASDQETSWELQMFKTENVPESTTLPAVDNNNLFDAVASPLADPLCDDI | 53300 |
| SNAAWGVMITFFQIIGLFDKYPIYWDSRLGDVVKAVSITILNTDYINLQCAYG | 73900 |
| SNARGSDPSSYAIEGEYKTLATDDLGNILNLNYGETNEVIMNEINDLNLPLGP | 112000 |
| SNASLSAQHPLGIDEEDLSSKPRCQRCRKSKKGCDRQRPCGRCKDAGIGIEGC | 35300 |
| SNDGEDENGDGVSNEKSGRKKGKGRRKRGKDQAQVKGDQEPQDGEAGGEGGAE | 21600 |
| SNDSSDEEDRKSRRKSKKKAKDRDASKERSKKDDKGKKKSRTSKGRSRKDEDS | 18600 |
| SNEGFDYDVELKKKNIGLILAFKEHECDSDQLVAYLVYQRMKRIVWLHKLCVV | 64600 |
| SNFASKVNTQLNLLQHSSSNSNFLDASPYDFNKIFMNNFENYDYETDEGYAED | 63600 |
